Starred links: 1 amine or outer side, 2 acyl side, 3 side chain; linkers in the order of their positions; H or OH if unused. Positions of bridges follow the written chain, without caps; N, C: chain ends. Non-standard residues stand in square brackets, D forms with d. Primed or numbered codes have the meaning given here. *: point of attachment. PyrS2″ = (S)-3-amino-1-((pent-4-en-1-yloxy)carbonyl)pyrrolidine-3-carboxylic acid (stapling residue), C=CCCCOC(=O)N1CC[C@@](N[*:1])(C(=O)[*:2])C1; PyrS3″ = (S)-3-amino-1-((hex-5-en-1-yloxy)carbonyl)pyrrolidine-3-carboxylic acid (stapling residue), C=CCCCCOC(=O)N1CC[C@@](N[*:1])(C(=O)[*:2])C1; PyrS2 = (S)-3-amino-1-((pent-4-en-1-yloxy)carbonyl)pyrrolidine-3-carboxylic acid, C=CCCCOC(=O)N1CC[C@@](N[*:1])(C(=O)[*:2])C1; PyrS3 = (S)-3-amino-1-((hex-5-en-1-yloxy)carbonyl)pyrrolidine-3-carboxylic acid, C=CCCCCOC(=O)N1CC[C@@](N[*:1])(C(=O)[*:2])C1; B5(7) = 2-amino-2-(pent-4-en-1-yl)hept-6-enoic acid, two olefinic side chains, C=CCCCC(CCCC=C)(N[*:1])C(=O)[*:2]; 4MePipBz = 4-((4-methylpiperazin-1-yl)methyl)benzoyl on Lys side chain, CN1CCN(Cc2ccc(C(=O)*)cc2)CC1; B5(3) = 2,2-bis(4-pentenyl)glycine (stitching residue), C=CCCCC(CCCC=C)(N[*:1])C(=O)[*:2]; MeMorphBz = 4-(morpholinomethyl)benzoyl on Lys side chain, O=C(c1ccc(CN2CCOCC2)cc1)*; B5 = 2-amino-2-(pent-4-en-1-yl)hept-6-enoic acid, C=CCCCC(CCCC=C)(N[*:1])C(=O)[*:2]; Bta = N[C@@H](Cc1csc2ccccc12)C(=O)O; αAllylPro = C=CC[C@@]1(C(=O)O)CCCN1; tBuAla = CC(C)(C)C[C@H](N)C(=O)O; 3Thi = N[C@@H](Cc1ccsc1)C(=O)O
B1: I-275 (peptide)
peptide: XDAXDDAAFVXXWQ
modifications: not fully specified; N-terminal Ac; PL3 at 1; B5 at 4; S8 at 11; 1NapA at 12; C-terminal NH2; staples PL3(1)-B5(4) and B5(4)-S8(11) by olefin metathesis
notes: Stapled (stitched) peptide; also called Ac-PL3-Asp-Ala-B5-Asp-Asp-Ala-Ala-Phe-Val-S8-1NapA-Trp-Gln-NH2
B2: I-276 (peptide)
peptide: XDAXDDAAFVXXWQ
modifications: not fully specified; N-terminal Ac; PL3 at 1; B5 at 4; S8 at 11; 1NapA at 12; C-terminal NH2; staples PL3(1)-B5(4) and B5(4)-S8(11) by olefin metathesis
notes: as for B1
B3: I-289 (peptide)
peptide: XDAXDDAAFVXFW
modifications: not fully specified; N-terminal Ac; PL3 at 1; B5 at 4; S8 at 11; C-terminal NH2; staples PL3(1)-B5(4) and B5(4)-S8(11) by olefin metathesis
notes: Stapled (stitched) peptide; also called Ac-PL3-Asp-Ala-B5-Asp-Asp-Ala-Ala-Phe-Val-S8-Phe-Trp-NH2
B4: I-290 (peptide)
peptide: XDAXDDAAFVXFW
modifications: not fully specified; N-terminal Ac; PL3 at 1; B5 at 4; S8 at 11; C-terminal NH2; staples PL3(1)-B5(4) and B5(4)-S8(11) by olefin metathesis
notes: as for B3

Biological target: T1, full-length beta-Catenin (Uniprot ID P35222) (Homo sapiens (Human), UniProt P35222 1-781)
T1 construct: The assay protocols call it full-length; also called B-Catenin; bCat
T1 sequence: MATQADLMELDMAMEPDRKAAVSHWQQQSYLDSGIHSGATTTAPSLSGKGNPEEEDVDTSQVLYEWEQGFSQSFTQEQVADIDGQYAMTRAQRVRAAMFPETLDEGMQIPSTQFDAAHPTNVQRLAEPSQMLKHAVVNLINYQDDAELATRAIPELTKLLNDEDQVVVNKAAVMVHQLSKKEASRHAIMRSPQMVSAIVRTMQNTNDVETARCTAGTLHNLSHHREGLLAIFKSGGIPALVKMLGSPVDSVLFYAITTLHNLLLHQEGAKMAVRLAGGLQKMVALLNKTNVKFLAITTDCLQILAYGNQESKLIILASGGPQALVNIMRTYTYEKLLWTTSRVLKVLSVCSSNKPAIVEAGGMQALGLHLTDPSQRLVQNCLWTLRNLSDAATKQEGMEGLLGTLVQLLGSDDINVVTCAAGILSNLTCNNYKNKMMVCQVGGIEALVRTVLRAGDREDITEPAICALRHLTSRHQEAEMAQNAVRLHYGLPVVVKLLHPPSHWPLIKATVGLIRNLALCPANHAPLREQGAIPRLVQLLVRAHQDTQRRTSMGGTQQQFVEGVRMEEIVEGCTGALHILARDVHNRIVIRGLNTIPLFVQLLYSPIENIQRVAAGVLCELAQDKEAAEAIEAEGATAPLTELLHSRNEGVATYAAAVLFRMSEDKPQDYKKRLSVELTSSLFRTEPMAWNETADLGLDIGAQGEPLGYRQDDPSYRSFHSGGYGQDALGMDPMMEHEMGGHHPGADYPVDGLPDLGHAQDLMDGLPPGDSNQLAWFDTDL
Assay: fluorescence polarization competition; full-length beta-catenin with 5FAM-labelled TCF4 10-53 peptide as competitor
Experimental: (§1) The plate was incubated protected from light for 60 minutes at 20° C. prior to read. Reads were performed on a CLARIOstar plate reader (BMG Labtech) in duplicate, and data were fitted to a 1:1 binding model with hill slope using an in-house script. All provided concentrations are final concentrations.

Binder | EC50
B1 | 5 µM
B2 | 3.43 µM
B3 | 5 µM
B4 | 3.29 µM

Biological target: T2, B-cat-Halo (beta-catenin HaloTag fusion expressed in HEK293 cells) (Homo sapiens (Human), UniProt P35222 1-781)
T2 sequence: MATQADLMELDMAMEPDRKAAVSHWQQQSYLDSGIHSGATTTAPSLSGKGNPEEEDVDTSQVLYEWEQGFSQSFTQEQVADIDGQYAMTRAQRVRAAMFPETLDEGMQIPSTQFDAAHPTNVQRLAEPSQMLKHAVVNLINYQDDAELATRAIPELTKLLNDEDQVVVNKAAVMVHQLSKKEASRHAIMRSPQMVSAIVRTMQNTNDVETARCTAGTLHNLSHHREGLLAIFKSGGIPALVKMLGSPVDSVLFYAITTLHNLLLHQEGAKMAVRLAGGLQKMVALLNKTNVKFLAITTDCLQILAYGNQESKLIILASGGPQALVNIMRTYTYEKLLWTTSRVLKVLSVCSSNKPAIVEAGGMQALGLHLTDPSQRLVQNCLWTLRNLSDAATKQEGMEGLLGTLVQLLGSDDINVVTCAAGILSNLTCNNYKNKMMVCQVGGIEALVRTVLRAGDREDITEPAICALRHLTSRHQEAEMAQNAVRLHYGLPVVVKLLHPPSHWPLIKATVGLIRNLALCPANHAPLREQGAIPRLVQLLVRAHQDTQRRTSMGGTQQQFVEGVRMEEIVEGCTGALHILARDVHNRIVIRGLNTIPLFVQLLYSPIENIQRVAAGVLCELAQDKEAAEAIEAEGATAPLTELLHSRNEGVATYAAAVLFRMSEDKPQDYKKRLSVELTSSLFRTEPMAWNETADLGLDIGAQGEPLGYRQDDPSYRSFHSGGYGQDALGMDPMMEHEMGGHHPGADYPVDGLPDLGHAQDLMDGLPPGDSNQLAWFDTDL
Assay: cell-based or functional assay

Binder | NanoBRET IC50 | NanoBRET % inh @ 10 uM | NanoBRET Abs IC50
Ac-[αAllylPro]D[tBuAla][B5(3)]DDAAFT[PyrS2″][3Thi][Bta]Q-NH2 (staple 1-4, 4-11) [I-809] | 11.7 µM |  | 
Ac-[αAllylPro]D[tBuAla][B5]DDAAFN[PyrS2″][3Thi][Bta]T-NH2 (staple 1-4, 4-11) [I-814] | 12.7 µM |  | 
Ac-[αAllylPro]D[tBuAla][B5]DDAAFN[PyrS2″][3Thi][Bta]S-NH2 (staple 1-4, 4-11) [I-815] | 11.8 µM |  | 
Ac-[αAllylPro]D[tBuAla][B5]DDAAFN[PyrS2″][3Thi][Bta][dT]-NH2 (staple 1-4, 4-11) [I-817] | 6.8 µM | 45% | 
Ac-[αAllylPro]D[tBuAla][B5]DDAAFN[PyrS2″][3Thi][Bta][dN]-NH2 (staple 1-4, 4-11) [I-818] |  | 31.4% | 
Ac-[αAllylPro]D[tBuAla][B5]DDAAFN[PyrS2″][3Thi][Bta]QA-NH2 (staple 1-4, 4-11) [I-819] |  | 37.8% | 
Ac-[αAllylPro]D[tBuAla][B5]DDAAFN[PyrS2″][3Thi][Bta]HA-NH2 (staple 1-4, 4-11) [I-820] |  | 30.8% | 
Ac-[αAllylPro]D[tBuAla][B5]DDAAFN[PyrS2″][3Thi][Bta]Q[dA]-NH2 (staple 1-4, 4-11) [I-822] | 7.7 µM | 53% | 
Ac-[αAllylPro]D[tBuAla][B5(7)]DDAAFN[PyrS2][3Thi][Bta]H[dA]-NH2 (staple 1-4, 4-11) [I-823] | > 10 µM | 37.5% | 
Ac-[αAllylPro]D[tBuAla][B5(7)]DDAAFN[PyrS3][3Thi][Bta]Q[dA]-NH2 (staple 1-4, 4-11) [I-831] |  | 32.4% | 
Ac-[αAllylPro]D[tBuAla][B5(3)]DDAAFN[PyrS3″][3Thi][Bta]N[dA]-NH2 (staple 1-4, 4-11) [I-835] |  | 27.6% | 
Ac-[αAllylPro]D[tBuAla][B5(3)]DNAAFN[PyrS2″][3Thi][Bta]Q-NH2 (staple 1-4, 4-11) [I-836] |  |  | 16.9 µM

Biological target: T3, B-cat-Halo (beta-catenin HaloTag NanoBRET construct expressed in HEK293 cells) (UniProt P35222 1-781)
T3 sequence (looked up): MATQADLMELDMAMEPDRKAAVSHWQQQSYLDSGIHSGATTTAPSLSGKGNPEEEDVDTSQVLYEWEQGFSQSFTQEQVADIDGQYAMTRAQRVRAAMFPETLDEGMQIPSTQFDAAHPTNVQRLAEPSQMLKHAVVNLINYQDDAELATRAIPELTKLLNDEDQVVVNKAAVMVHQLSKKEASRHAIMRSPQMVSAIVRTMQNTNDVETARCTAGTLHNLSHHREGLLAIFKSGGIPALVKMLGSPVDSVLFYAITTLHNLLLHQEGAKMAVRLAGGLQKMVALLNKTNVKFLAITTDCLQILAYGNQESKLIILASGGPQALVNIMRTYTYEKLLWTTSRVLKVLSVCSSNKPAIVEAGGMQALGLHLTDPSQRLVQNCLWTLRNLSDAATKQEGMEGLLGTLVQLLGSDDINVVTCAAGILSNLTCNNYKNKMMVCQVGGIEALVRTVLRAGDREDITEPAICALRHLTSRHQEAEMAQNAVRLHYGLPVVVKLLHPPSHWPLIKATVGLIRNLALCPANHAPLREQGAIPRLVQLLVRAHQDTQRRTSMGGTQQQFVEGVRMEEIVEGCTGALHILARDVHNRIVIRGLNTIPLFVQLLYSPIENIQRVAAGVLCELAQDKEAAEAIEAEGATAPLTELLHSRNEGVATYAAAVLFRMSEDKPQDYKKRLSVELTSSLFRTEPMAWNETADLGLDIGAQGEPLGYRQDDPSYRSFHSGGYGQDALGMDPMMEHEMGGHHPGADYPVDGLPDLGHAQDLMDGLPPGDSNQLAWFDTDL
Assay: cell-based or functional assay

Binder | NanoBRET Abs IC50
Ac-[αAllylPro]D[tBuAla][B5(3)]DDAK(4MePipBz)FN[PyrS2″][3Thi][Bta]Q-NH2 (staple 1-4, 4-11) [I-889] | > 20 µM
Ac-[αAllylPro]D[tBuAla][B5(3)]DDAK(MeMorphBz)FN[PyrS2″][3Thi][Bta]Q-NH2 (staple 1-4, 4-11) [I-890] | > 20 µM

Biological target: T1, full-length beta-Catenin (Uniprot ID …)
Assay: AlphaScreen competition; full-length beta-catenin with biotin-labelled TCF4 10-53 peptide as competitor
Experimental: as §1, with “Equal volume of the titrated peptide was added to the” for “The”, “and” for “was”, “incubated for 15 minutes at 20° C. Then 4 uL of donor and 4 uL acceptor beads at 10 ug/mL were added to the plate, for a 16 uL reaction pool and” for “incubated”

Binder | EC50
B1 | 859 nM
B2 | 329 nM
B3 | 626 nM
B4 | 303 nM
